We go through 5 molecules from US10562947B2, “Compositions and methods for preventing or treating diseases, conditions or processes characterized by aberrant fibroblast proliferation and extracellular matrix deposition” (MOERAE MATRIX, INC., priority 2011, dated 2020).

Where a SMILES comes first, the peptide text is derived from it. Bounds are passed on as bounds.

Test in all cases: Kinase Profiling Assay
Common to all, as to format: biochemical

The target in assay [1] is CaMKI(h) (Homo sapiens, UniProt Q14012). The conditions noted are these: for CaMKI(h) % activity: 100 μM peptide. As to the method:
(§1) Every kinase activity measurement was conducted in duplicate.
(§2) In addition to determining the IC50 of the compound, the specificity of MK2 inhibitory peptides was assessed by examining activities of all 266 human kinases available for testing in the Millipore kinase profiling service (Table 1).

For assay [2], the target named is T1, DYRK2(h) (Homo sapiens, UniProt Q92630).
T1 sequence (Q92630 1-601): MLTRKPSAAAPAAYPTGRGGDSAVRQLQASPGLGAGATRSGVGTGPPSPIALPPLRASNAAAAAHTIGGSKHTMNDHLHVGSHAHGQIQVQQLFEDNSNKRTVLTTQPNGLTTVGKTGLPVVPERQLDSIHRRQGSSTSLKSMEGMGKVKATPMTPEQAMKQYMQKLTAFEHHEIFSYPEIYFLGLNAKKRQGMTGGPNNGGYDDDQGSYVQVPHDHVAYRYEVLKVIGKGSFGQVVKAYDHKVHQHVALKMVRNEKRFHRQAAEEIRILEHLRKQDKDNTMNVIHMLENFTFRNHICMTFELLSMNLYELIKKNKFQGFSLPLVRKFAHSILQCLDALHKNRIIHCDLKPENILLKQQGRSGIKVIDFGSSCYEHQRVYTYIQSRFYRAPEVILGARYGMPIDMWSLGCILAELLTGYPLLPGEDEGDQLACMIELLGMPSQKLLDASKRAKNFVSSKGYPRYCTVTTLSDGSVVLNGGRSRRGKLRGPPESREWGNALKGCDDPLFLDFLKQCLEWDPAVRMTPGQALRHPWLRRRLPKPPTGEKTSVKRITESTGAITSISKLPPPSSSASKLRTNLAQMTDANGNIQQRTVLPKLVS
The conditions noted are these: 100 μM peptide. As to the method: as §1, §2

The target in assay [3] is F1t3(h) (Homo sapiens, UniProt P36888). The conditions noted are these: 100 μM peptide. The procedure: as §1, §2
Assay [4] addresses PAK4(h) (Homo sapiens, UniProt O96013). The conditions noted are these: 100 μM peptide. The procedure:
as §1, §2

Assay [5] concerns the target T2, ULK2(h) (Homo sapiens, UniProt Q8IYT8).
T2 sequence (Q8IYT8 1-1036): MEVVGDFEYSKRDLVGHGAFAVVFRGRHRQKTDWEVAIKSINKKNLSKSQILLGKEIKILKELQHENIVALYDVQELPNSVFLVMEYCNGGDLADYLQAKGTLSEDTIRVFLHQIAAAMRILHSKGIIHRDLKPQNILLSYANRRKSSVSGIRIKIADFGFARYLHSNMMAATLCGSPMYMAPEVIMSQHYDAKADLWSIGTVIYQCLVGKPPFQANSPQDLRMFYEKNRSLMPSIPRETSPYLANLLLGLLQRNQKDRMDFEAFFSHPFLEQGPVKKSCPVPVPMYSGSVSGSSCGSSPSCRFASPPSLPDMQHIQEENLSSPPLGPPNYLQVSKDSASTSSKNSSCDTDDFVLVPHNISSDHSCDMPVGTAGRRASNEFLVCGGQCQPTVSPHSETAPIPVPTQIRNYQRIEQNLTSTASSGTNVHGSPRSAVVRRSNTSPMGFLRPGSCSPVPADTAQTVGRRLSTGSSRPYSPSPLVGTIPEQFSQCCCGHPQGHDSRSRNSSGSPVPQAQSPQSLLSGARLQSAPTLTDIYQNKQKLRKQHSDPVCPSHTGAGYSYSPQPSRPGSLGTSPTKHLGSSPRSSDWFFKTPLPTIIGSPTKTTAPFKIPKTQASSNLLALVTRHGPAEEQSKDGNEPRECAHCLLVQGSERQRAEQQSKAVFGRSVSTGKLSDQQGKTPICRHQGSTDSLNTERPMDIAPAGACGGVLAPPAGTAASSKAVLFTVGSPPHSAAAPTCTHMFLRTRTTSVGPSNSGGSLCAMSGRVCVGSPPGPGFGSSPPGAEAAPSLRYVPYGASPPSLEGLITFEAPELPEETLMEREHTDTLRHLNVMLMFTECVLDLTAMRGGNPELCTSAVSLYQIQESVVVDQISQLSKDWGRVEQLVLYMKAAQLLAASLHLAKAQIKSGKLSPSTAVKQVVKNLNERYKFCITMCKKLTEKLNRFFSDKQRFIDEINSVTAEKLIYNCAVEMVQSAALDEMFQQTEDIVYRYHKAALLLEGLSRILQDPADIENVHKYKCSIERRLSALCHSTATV
The conditions noted are these: 100 μM peptide. The procedure:
as §1, §2

The target in assay [6] is MRCKβ(h) (Homo sapiens, UniProt Q9Y5S2). The conditions noted are these: 100 μM peptide. The procedure: as §1, §2
For assay [7], the target named is T3, TAO3(h) (Homo sapiens, UniProt Q9H2K8).
T3 sequence (Q9H2K8 1-898): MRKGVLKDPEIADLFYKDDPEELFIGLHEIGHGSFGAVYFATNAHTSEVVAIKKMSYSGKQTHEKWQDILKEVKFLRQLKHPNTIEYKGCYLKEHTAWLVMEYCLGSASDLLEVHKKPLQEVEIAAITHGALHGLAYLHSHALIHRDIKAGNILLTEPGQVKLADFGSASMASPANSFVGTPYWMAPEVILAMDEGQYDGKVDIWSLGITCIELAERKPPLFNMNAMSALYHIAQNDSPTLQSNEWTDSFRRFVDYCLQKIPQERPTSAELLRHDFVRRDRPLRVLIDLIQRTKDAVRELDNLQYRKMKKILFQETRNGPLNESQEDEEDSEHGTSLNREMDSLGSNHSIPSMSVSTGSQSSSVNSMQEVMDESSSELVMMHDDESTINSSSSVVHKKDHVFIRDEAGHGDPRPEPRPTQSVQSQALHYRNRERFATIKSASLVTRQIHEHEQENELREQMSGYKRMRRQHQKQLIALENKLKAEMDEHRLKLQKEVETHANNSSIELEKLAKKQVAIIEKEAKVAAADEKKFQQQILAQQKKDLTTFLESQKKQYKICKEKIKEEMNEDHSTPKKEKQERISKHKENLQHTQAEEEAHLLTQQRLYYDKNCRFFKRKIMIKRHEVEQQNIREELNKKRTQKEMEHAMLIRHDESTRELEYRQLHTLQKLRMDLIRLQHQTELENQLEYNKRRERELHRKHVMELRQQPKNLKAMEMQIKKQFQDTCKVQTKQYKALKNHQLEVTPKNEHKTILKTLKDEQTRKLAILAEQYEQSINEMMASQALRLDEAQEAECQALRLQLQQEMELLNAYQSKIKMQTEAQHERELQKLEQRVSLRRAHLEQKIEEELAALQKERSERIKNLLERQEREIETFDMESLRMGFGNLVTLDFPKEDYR
Conditions: 100 μM peptide. The procedure: as §1, §2

MRCKβ(h), sequence (Q9Y5S2 whole entry): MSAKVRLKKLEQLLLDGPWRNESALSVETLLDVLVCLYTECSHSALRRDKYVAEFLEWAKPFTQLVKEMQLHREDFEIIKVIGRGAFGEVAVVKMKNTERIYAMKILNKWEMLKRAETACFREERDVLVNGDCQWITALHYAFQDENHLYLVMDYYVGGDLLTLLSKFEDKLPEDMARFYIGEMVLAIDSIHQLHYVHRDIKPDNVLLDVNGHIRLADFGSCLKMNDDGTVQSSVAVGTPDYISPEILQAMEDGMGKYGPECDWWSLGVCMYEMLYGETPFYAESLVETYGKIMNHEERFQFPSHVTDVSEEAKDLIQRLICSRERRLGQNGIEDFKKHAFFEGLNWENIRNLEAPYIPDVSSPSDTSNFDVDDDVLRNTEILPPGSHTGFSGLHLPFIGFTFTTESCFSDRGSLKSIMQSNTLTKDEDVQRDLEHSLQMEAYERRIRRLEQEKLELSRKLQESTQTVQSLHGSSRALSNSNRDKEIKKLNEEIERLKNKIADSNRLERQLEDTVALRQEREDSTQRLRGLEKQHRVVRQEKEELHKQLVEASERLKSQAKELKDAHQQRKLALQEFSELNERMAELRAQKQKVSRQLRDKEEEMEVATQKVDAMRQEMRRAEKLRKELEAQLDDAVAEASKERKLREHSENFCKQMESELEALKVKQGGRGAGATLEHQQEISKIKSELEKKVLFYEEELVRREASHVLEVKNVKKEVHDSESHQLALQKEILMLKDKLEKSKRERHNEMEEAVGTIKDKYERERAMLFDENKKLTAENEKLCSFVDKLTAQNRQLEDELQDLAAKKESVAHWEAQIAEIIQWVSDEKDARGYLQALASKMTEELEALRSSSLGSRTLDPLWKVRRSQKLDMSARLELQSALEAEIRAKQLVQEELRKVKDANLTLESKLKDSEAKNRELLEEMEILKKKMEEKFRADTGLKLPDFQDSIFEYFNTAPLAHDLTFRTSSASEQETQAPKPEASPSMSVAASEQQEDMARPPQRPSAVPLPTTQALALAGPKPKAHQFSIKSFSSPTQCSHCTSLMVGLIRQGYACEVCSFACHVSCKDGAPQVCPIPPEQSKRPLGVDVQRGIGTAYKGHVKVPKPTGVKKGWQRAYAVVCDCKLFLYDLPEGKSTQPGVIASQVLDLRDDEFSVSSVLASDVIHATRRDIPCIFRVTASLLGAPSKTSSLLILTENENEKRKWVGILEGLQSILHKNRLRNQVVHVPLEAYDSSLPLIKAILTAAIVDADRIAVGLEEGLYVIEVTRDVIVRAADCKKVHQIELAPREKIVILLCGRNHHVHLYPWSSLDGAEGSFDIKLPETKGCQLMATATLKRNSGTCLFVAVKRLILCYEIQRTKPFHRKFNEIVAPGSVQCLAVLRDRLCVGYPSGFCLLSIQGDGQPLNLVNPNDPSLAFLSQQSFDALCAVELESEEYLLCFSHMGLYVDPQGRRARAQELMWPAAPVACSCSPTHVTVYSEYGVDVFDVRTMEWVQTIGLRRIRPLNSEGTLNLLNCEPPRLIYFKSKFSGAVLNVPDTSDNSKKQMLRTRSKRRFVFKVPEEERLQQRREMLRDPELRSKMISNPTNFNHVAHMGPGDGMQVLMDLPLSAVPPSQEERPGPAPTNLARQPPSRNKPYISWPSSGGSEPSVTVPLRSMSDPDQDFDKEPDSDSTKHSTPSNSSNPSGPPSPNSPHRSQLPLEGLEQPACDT
CaMKI(h), sequence (Q14012 whole entry): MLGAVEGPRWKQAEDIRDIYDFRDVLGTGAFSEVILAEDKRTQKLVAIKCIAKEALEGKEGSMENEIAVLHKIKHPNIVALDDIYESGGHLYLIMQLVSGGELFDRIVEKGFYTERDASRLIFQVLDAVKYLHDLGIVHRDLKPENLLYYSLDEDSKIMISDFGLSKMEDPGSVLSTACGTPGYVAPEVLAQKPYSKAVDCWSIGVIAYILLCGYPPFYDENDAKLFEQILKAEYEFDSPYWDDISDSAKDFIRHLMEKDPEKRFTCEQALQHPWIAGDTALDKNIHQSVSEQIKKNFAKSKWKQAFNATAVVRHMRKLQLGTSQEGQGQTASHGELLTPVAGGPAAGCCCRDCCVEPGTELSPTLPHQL
PAK4(h), sequence (O96013 whole entry): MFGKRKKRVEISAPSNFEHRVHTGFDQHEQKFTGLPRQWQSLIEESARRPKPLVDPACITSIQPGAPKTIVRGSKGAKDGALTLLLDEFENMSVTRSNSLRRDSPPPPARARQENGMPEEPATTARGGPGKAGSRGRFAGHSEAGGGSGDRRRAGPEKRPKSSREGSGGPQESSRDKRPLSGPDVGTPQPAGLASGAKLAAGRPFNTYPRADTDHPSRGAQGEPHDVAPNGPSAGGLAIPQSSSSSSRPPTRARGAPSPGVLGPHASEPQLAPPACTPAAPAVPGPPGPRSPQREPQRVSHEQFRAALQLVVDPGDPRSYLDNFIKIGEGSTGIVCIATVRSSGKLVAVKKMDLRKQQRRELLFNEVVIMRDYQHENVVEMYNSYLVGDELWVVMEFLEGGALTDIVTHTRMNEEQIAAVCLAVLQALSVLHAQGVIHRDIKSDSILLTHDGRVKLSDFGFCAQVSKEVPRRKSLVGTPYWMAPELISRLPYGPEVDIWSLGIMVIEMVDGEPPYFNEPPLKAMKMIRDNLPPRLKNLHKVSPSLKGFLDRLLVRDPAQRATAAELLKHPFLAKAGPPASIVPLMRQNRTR

With “YARAAARQARAKALNRQLGVA (Mammalian) [MMI-0200]”, in assay [1], the “CaMKI(h) % activity” value stood at 21%. The “DYRK2(h) % activity” value in assay [2] worked out at 142%. Further, the “F1t3(h) % activity” value in assay [3] is 99%. In assay [4], the “PAK4(h) % activity” value is on record as 98%. Moreover, in assay [5], the “ULK2(h) % activity” value amounted to 132%.
In the case of “HRRIKAWLKKIKALARQLGVAA (Mammalian) [MMI-0500]”, in assay [1], the “CaMKI(h) % activity” value is on record as −1%. The “DYRK2(h) % activity” value in assay [2] is reported as 127%. In assay [3], the “F1t3(h) % activity” value is listed as 17%. Besides, in assay [6], the “MRCKβ(h) % activity” value is recorded as −10%. The “PAK4(h) % activity” value in assay [4] was 86%. Moreover, the “TAO3(h) % activity” value in assay [7] is recorded as 12%. Further, in assay [5], the “ULK2(h) % activity” value is listed as 124%.
As a reminder, the inhibition is the relative decrease from the control value, in per cent. In the case of `CC(C)C[C@H](NC(=O)[C@H](C)NC(=O)[C@H](CCCCN)NC(=O)[C@H](C)NC(=O)[C@H](CCCNC(=N)N)NC(=O)[C@H](C)NC(=O)[C@H](CCC(N)=O)NC(=O)[C@H](CCCNC(=N)N)NC(=O)[C@H](C)NC(=O)[C@H](C)NC(=O)[C@H](C)NC(=O)[C@H](CCCNC(=N)N)NC(=O)[C@H](C)NC(=O)[C@@H](N)Cc1ccc(O)cc1)C(=O)N[C@@H](C)C(=O)N[C@@H](CCCNC(=N)N)C(=O)N[C@@H](CCC(N)=O)C(=O)N[C@@H](CC(C)C)C(=O)NCC(=O)N[C@H](C(=O)N[C@@H](C)C(=O)N[C@@H](C)C(=O)O)C(C)C` [MMI-0100] (H-YARAAARQARAKALARQLGVAA-OH; N-terminus and C-terminus assumed), the inhibition at 100 µM in assay [1] (read-out: inhibition of kinase activity of CaMKI) is above 65%.
For KAFAKLAARLYRKALARQLGVAA [MMI-0400], the “CaMKI(h) % activity” value in assay [1] came out at 0%. In assay [2], the “DYRK2(h) % activity” value was 195%. Moreover, the “F1t3(h) % activity” value in assay [3] worked out at 18%. For the same molecule, the “MRCKβ(h) % activity” value in assay [6] amounted to 71%. Besides, in assay [4], the “PAK4(h) % activity” value is listed as 89%. Besides, the “TAO3(h) % activity” value in assay [7] was found to be 67%. Also, the “ULK2(h) % activity” value in assay [5] came out at 131%.
As for FAKLAARLYRKALARQLGVAA [MMI-0300], the “CaMKI(h) % activity” value in assay [1] is recorded as 1%. In assay [2], the “DYRK2(h) % activity” value came out at 155%. For the same molecule, the “F1t3(h) % activity” value in assay [3] worked out at 84%. In assay [6], the “MRCKβ(h) % activity” value came out at 83%. For the same molecule, the “PAK4(h) % activity” value in assay [4] came out at 94%. For the same molecule, the “TAO3(h) % activity” value in assay [7] turned out to be 77%. The “ULK2(h) % activity” value in assay [5] was 122%.
